Test results as given in PMC4428629, “The Structure of an NDR/LATS Kinase–Mob Complex Reveals a Novel Kinase–Coactivator System and Substrate Docking Mechanism” (PLoS Biology, 2015).

What was measured:
[1] = tested on: budding yeast cell separation (RAM network output); test: Cell separation assay (cells per group); assay type: cell-based, Saccharomyces cerevisiae; settings: cbk1-as2 strain
[2] = tested on: budding yeast cell separation (RAM network output); test: Cell separation assay (cells per group); assay type: cell-based, Saccharomyces cerevisiae; settings: cbk1-as2 strain; remark: listed apart in the source
Method: For cell separation assays, ckb1Δ, ace2ΔCBK1, or ace2Δcbk1-as2 cells were transformed with empty, WT, or mutant vector under control of the ADH1 promoter. Cells were grown to log-phase, briefly sonicated, and mounted on slides to count cell group size. Histograms represent mean ± standard deviation of three independent cultures, with >100 groups counted for each. For quantification of transcriptional output, RNA was isolated from log-phase cultures and analyzed by real-time PCR. Bar graphs represent mean ± standard deviation of three independent cultures. For growth assays, WT CBK1 or cbk1-as2 strains were transformed with vectors containing Ssd1 (WT and mutants) expressed from a galactose-inducible promoter. Stationary phase cells grown in glucose were diluted to OD600 = 0.2. Five-fold serial dilutions (5^−2, 5^−3, 5^−4, 5^−5) were plated in the presence of glucose or galactose, then incubated for 3 d at 24°C.
(§1) Supplementary file pbio.1002146.s001.xlsx: S1 Data Measurements of the distances between the centers of mass of indicated Cbk1 and Mob2 regions over the course of the molecular dynamics simulations described in Figs 3 and S4. This file also contains data quantifying the effectiveness of cell separation in different genetic backgrounds. In these experiments we counted the number of cells present in clumps of specific sizes in random microscope fields, and then binned these groups into clump size ranges: 1–4 cells, 5–10 cells, 11–20 cells, and ≥21 cells per clump. We quantified this for the indicated allele combinations, scoring three independent isolates of each allele combination. The number of cell bodies present in clumps of different sizes is a function of the efficiency of cell separation. (XLSX) Click here for additional data file.
as §1, with “pbio.1002146.s004.xlsx: S4” for “pbio.1002146.s001.xlsx: S1”, “Data” for “Measurements of the distances between the centers of mass of indicated Cbk1 and Mob2 regions over the course of the molecular dynamics simulations described in Figs 3 and S4. This file also contains data”, “1–2 cells, 3–4” for “1–4”

B1: Ace2 WT (protein, UniProt P21192 1-770, looked up)
Metallothionein expression …: MDNVVDPWYINPSGFAKDTQDEEYVQHHDNVNPTIPPPDNYILNNENDDGLDNLLGMDYYNIDDLLTQELRDLDIPLVPSPKTGDGSSDKKNIDRTWNLGDENNKVSHYSKKSMSSHKRGLSGTAIFGFLGHNKTLSISSLQQSILNMSKDPQPMELINELGNHNTVKNNNDDFDHIRENDGENSYLSQVLLKQQEELRIALEKQKEVNEKLEKQLRDNQIQQEKLRKVLEEQEEVAQKLVSGATNSNSKPGSPVILKTPAMQNGRMKDNAIIVTTNSANGGYQFPPPTLISPRMSNTSINGSPSRKYHRQRYPNKSPESNGLNLFSSNSGYLRDSELLSFSPQNYNLNLDGLTYNDHNNTSDKNNNDKKNSTGDNIFRLFEKTSPGGLSISPRINGNSLRSPFLVGTDKSRDDRYAAGTFTPRTQLSPIHKKRESVVSTVSTISQLQDDTEPIHMRNTQNPTLRNANALASSSVLPPIPGSSNNTPIKNSLPQKHVFQHTPVKAPPKNGSNLAPLLNAPDLTDHQLEIKTPIRNNSHCEVESYPQVPPVTHDIHKSPTLHSTSPLPDEIIPRTTPMKITKKPTTLPPGTIDQYVKELPDKLFECLYPNCNKVFKRRYNIRSHIQTHLQDRPYSCDFPGCTKAFVRNHDLIRHKISHNAKKYICPCGKRFNREDALMVHRSRMICTGGKKLEHSINKKLTSPKKSLLDSPHDTSPVKETIARDKDGSVLMKMEEQLRDDMRKHGLLDPPPSTAAHEQNSNRTLSNETDAL
Cells per group, bin 4 (3-4), % ([1]; Isolate 1): 16.9065% | Cells per group, bin 2 (1-2), Frequency ([1]; Isolate 1, count): 213 | Cells per group, bin 4 (3-4), Frequency ([1]; Isolate 1, count): 47 | Cells per group, bin 4 (3-4), Frequency ([1]; Isolate 2, count): 18 | Cells per group, bin 2 (1-2), % ([1]; Isolate 3): 97.3684% | Cells per group, bin 2 (1-2), % ([2]; Isolate 1): 76.6187% | Cells per group, bin 10 (5-10), % ([2]; Isolate 1): 5.7554% | Cells per group, bin 20 (11-20), % ([2]; Isolate 1): 0.7194% | Cells per group, bin More (20+), % ([2]; Isolate 1): 0% | Cells per group, bin 10 (5-10), Frequency ([2]; Isolate 1, count): 16 | Cells per group, bin 20 (11-20), Frequency ([2]; Isolate 1, count): 2 | Cells per group, bin More (20+), Frequency ([2]; Isolate 1, count): 0 | Cells per group, bin 2 (1-2), % ([2]; Isolate 2): 92.7273% | Cells per group, bin 4 (3-4), % ([2]; Isolate 2): 6.545% | Cells per group, bin 10 (5-10), % ([2]; Isolate 2): 0.7273% | Cells per group, bin 20 (11-20), % ([2]; Isolate 2): 0% | Cells per group, bin More (20+), % ([2]; Isolate 2): 0% | Cells per group, bin 2 (1-2), Frequency ([2]; Isolate 2, count): 255 | Cells per group, bin 10 (5-10), Frequency ([2]; Isolate 2, count): 2 | Cells per group, bin 20 (11-20), Frequency ([2]; Isolate 2, count): 0 | Cells per group, bin More (20+), Frequency ([2]; Isolate 2, count): 0 | Cells per group, bin 4 (3-4), % ([2]; Isolate 3): 1.579% | Cells per group, bin 10 (5-10), % ([2]; Isolate 3): 0.5263% | Cells per group, bin 20 (11-20), % ([2]; Isolate 3): 0.5263% | Cells per group, bin More (20+), % ([2]; Isolate 3): 0% | Cells per group, bin 2 (1-2), Frequency ([2]; Isolate 3, count): 185 | Cells per group, bin 4 (3-4), Frequency ([2]; Isolate 3, count): 3 | Cells per group, bin 10 (5-10), Frequency ([2]; Isolate 3, count): 1 | Cells per group, bin 20 (11-20), Frequency ([2]; Isolate 3, count): 1 | Cells per group, bin More (20+), Frequency ([2]; Isolate 3, count): 0 | Cells per group, 1-2, Mean ([2]; mean of 3 isolates): 88.9048% | Cells per group, 3-4, Mean ([2]; mean of 3 isolates): 8.344% | Cells per group, 5-10, Mean ([2]; mean of 3 isolates): 2.336% | Cells per group, 11-20, Mean ([2]; mean of 3 isolates): 0.4152% | Cells per group, 20+, Mean ([2]; mean of 3 isolates): 0%
